Results taken from patent publication US6558661 (Genentech, dated 2003).

B1: human IFN-γ receptor-IgG-1 immunoadhesin (hIFNγR-IgG-1) (Fc fusion, not shown: a dimerising Fc or GST)
chain: EMGTADLGPSSVPTPTNVTIESYNMNPIVYWEYQIMPQVPVFTVEVKNYGVKNSEWIDACINISHHYCNISDHVGDPSNSLWVRVKARVGQKESAYAKSEEFAVCRDGKIGPPKLDIRKEEKQIMIDIFHPSVFVNGDEQEVDYDPETTCYIRVYNVYVRMNGSEIQYKILTQKEDDCDEIQCQLAIPVSSLNSQYCVSAEGVLHVWGVTTEKSKEVCITIFNSSIKG
B2: murine IFN-γ receptor-IgG-1 immunoadhesin (mIFNγR-IgG-1) (Fc fusion, UniProt P15261 26-254, looked up, not shown: a dimerising Fc or GST)
chain: ALTSTEDPEPPSVPVPTNVLIKSYNLNPVVCWEYQNMSQTPIFTVQVKVYSGSWTDSCTNISDHCCNIYEQIMYPDVSAWARVKAKVGQKESDYARSKEFLMCLKGKVGPPGLEIRRKKEEQLSVLVFHPEVVVNGESQGTMFGDGSTCYTFDYTVYVEHNRSGEILHTKHTVEKEECNETLCELNISVSTLDSRYCISVDGISSFWQVRTEKSKDVCIPPFHDDRKDS
B3: recombinant human IFN-γ (ligand, UniProt P01579 24-166, looked up)
chain: QDPYVKEAENLKKYFNAGHSDVADNGTLFLGILKNWKEESDRKIMQSQIVSFYFKLFKNFKDDQSIQKSVETIKEDMNVKFFNSNKKKRDDFEKLTNYSVTDLNVQRKAIHELIQVMAELSPAAKTGKRKRSQMLFRGRRASQ
modifications: radioiodinated with 125I using lactoperoxidase in the binding assays and ligand blots; unlabeled as competitor and in cell assays
notes: also called hIFN-γ
B4: recombinant murine IFN-γ (ligand, UniProt P01580 23-155, looked up)
chain: HGTVIESLESLNNYFNSSGIDVEEKSLFLDIWRNWQKDGDMKILQSQIISFYLRLFEVLKDNQAISNNISVIESHLITTFFSNSKAKKDAFMSIAKFEVNNPQVQRQAFNELIRVVHQLLPESSLRKRKRSRC
modifications: radioiodinated with 125I using lactoperoxidase in the binding assays and ligand blots; unlabeled as competitor and in cell assays
notes: also called mIFN-γ

Tests used:
recombinant human IFN-γ = target: B3; experiment: cell-based or functional assay
recombinant murine IFN-γ = target: B4; experiment: cell-based or functional assay
[1] = target: B1; experiment: equilibrium binding of [125I]hIFN-γ to immunoadhesin immobilized on anti-human IgG Fc coated wells, Scatchard analysis
Method: (§1) IFNv binding assays. The binding of IFNγR-IgGs to IFN-γ was analyzed essentially as described [Ashkenazi et al., *Proc. Natl. Acad. Sci. USA* 88: 10535–10539 (1991)]. Each IFNγR-IgG (1 μg/ml) was immobilized onto microtiter wells coated with goat anti-human IgG Fc antibody. […] Nonspecific binding was determined by omitting IFNγR-IgGs.
(§2) Binding of IFNγR-IqG to IFN-γ. We investigated the binding of the human and murine immunoadhesins to IFN-γ by equilibrium binding analysis (FIG. 2). […] 135: 300–305 (1985); Ucer, et al, Int. J. Cancer 36: 103–108 (1985)].

[2] = target: B2; experiment: competition binding assay with [125I]mIFN-γ on immobilized mIFNγR-IgG (data not shown)
Method: as §1, §2

[3] = target: B1; experiment: competition binding assay with [125I]hIFN-γ on immobilized hIFNγR-IgG (data not shown)
Method: as §1, §2

[4] = target: B2; experiment: equilibrium binding of [125I]mIFN-γ to immunoadhesin immobilized on anti-human IgG Fc coated wells, Scatchard analysis
Method: as §1, §2

B1 was tested, and the “inhibition of hIFN-γ antiviral effect in EMCV-infected human A549 cells, IC50” value (recombinant human IFN-γ) was about 8 nM and the “inhibition of hIFN-γ induction of ICAM-1 in human HeLa cells, half-maximal inhibition (IC50)” value (recombinant human IFN-γ) was about 13 nM.

With B2 the “inhibition of mIFN-γ antiviral effect in EMCV-infected mouse L929 cells, IC50” value (recombinant murine IFN-γ) was about 10 nM and the “inhibition of mIFN-γ induction of class I MHC antigen H-2Kk in mouse L929 cells, IC50” value (recombinant murine IFN-γ) was about 10 nM.

For B3, the Kd [1] was 1.5 nM and the binding result [2] was “no binding”.

B4 was tested, and the binding result [3] was “no binding” and the Kd [4] was 3.3 nM.
